Experimental data reported in the supplement of paper PMC9116672.
± gives the standard deviation of the averaged measurements or the uncertainty stated by the source.

Key:
[1] = duplex formation entropy ΔS (Van't Hoff fit of HRM Tm); higher = smaller entropy loss on duplex formation; conditions: temperature for dG: 50 °C, NaCl: 500 mM (unadjusted)
Protocol: (§1)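 Duplex of the listed DNA strand with its complement, in 1x NNE buffer (500 mM NaCl, pH 7.0) with 1x EvaGreen. ΔH and ΔS come from a Van't Hoff linear fit of 1/Tm against ln(CT/4) over 1-20 uM, using HRM Tm values.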

[2] = duplex formation enthalpy ΔH (Van't Hoff fit of HRM Tm); higher = less exothermic duplex formation; conditions: temperature for dG: 50 °C, NaCl: 500 mM (unadjusted)
Protocol: as §1

[3] = duplex melting temperature (HRM, EvaGreen); higher = more stable duplex
Protocol: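 Listed DNA strand annealed 1:1 with its complementary strand (95 °C 5 min, 0.1 °C/s to 20 °C). Melted in 1x NNE buffer (500 mM NaCl, 10 mM Na2HPO4, 1 mM EDTA, pH 7.0) with 1x EvaGreen on a LightCycler96 (37 to 97 °C, 0.1 °C/s). Tm is the peak of -dF/dT at the stated total duplex concentration; 4 replicates are averaged. PS oligos are non-stereospecific (Rp/Sp mixtures).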

[4] = duplex formation free energy ΔG50 (Van't Hoff fit of HRM Tm); higher = less stable duplex; conditions: temperature for dG: 50 °C, NaCl: 500 mM (unadjusted)
Protocol: as §1

[5] = backbone: PO-PO (both strands phosphodiester DNA)
[6] = backbone: PS-PO (listed strand fully phosphorothioate, complement phosphodiester)
[7] = backbone: PS-PS (both strands fully phosphorothioate)
[8] = duplex concentration 1 µM, backbone: PO-PO (both strands phosphodiester DNA)
[9] = duplex concentration 1 µM, backbone: PS-PS (both strands fully phosphorothioate)
[10] = duplex concentration 2.5 µM, backbone: PO-PO (both strands phosphodiester DNA)
[11] = duplex concentration 2.5 µM, backbone: PS-PO (listed strand fully phosphorothioate, complement phosphodiester)
[12] = duplex concentration 2.5 µM, backbone: PS-PS (both strands fully phosphorothioate)
[13] = duplex concentration 5 µM, backbone: PO-PO (both strands phosphodiester DNA)
[14] = duplex concentration 5 µM, backbone: PS-PO (listed strand fully phosphorothioate, complement phosphodiester)
[15] = duplex concentration 5 µM, backbone: PS-PS (both strands fully phosphorothioate)
[16] = duplex concentration 7.5 µM, backbone: PO-PO (both strands phosphodiester DNA)
[17] = duplex concentration 7.5 µM, backbone: PS-PO (listed strand fully phosphorothioate, complement phosphodiester)
[18] = duplex concentration 7.5 µM, backbone: PS-PS (both strands fully phosphorothioate)
[19] = duplex concentration 10 µM, backbone: PO-PO (both strands phosphodiester DNA)
[20] = duplex concentration 10 µM, backbone: PS-PO (listed strand fully phosphorothioate, complement phosphodiester)
[21] = duplex concentration 10 µM, backbone: PS-PS (both strands fully phosphorothioate)
[22] = duplex concentration 15 µM, backbone: PO-PO (both strands phosphodiester DNA)
[23] = duplex concentration 15 µM, backbone: PS-PO (listed strand fully phosphorothioate, complement phosphodiester)
[24] = duplex concentration 15 µM, backbone: PS-PS (both strands fully phosphorothioate)
[25] = duplex concentration 20 µM, backbone: PO-PO (both strands phosphodiester DNA)
[26] = duplex concentration 20 µM, backbone: PS-PO (listed strand fully phosphorothioate, complement phosphodiester)
[27] = duplex concentration 20 µM, backbone: PS-PS (both strands fully phosphorothioate)

Sequence | duplex formation entropy ΔS [1, 5] | duplex formation entropy ΔS [1, 6] | duplex formation entropy ΔS [1, 7] | duplex formation enthalpy ΔH [2, 5] | duplex formation enthalpy ΔH [2, 6] | duplex formation enthalpy ΔH [2, 7] | duplex melting temperature [3, 8] | duplex melting temperature [3, 9] | duplex melting temperature [3, 10] | duplex melting temperature [3, 11] | duplex melting temperature [3, 12] | duplex melting temperature [3, 13] | duplex melting temperature [3, 14] | duplex melting temperature [3, 15] | duplex melting temperature [3, 16] | duplex melting temperature [3, 17] | duplex melting temperature [3, 18] | duplex melting temperature [3, 19] | duplex melting temperature [3, 20] | duplex melting temperature [3, 21] | duplex melting temperature [3, 22] | duplex melting temperature [3, 23] | duplex melting temperature [3, 24] | duplex melting temperature [3, 25] | duplex melting temperature [3, 26] | duplex melting temperature [3, 27] | duplex formation free energy ΔG50 [4, 5] | duplex formation free energy ΔG50 [4, 6] | duplex formation free energy ΔG50 [4, 7] | duplex melting temperature ([3]; duplex concentration 1 µM, backbone: PS-PO (listed strand fully phosphorothioate, complement phosphodiester))
GAACTGCCACTACCAA | -178 ± 5.8 cal/mol/K | -185 ± 4.7 cal/mol/K | -172 ± 7.9 cal/mol/K | -69.8 ± 2 kcal/mol | -70.8 ± 1.6 kcal/mol | -65.1 ± 2.6 kcal/mol | 63.2 °C | 48.68 ± 0.086 °C | 64.85 ± 0.39 °C | 58.65 ± 0.087 °C | 52.19 ± 0.14 °C | 67.25 ± 0.085 °C | 60.93 ± 0.068 °C | 54.589 ± 0.051 °C | 68.57 ± 0.17 °C | 62.25 ± 0.15 °C | 55.833 ± 0.044 °C | 69.531 ± 0.05 °C | 63.17 ± 0.12 °C | 56.65 ± 0.09 °C | 71 ± 0.09 °C | 64.25 ± 0.11 °C | 57.7 ± 0.15 °C | 71.922 ± 0.013 °C | 65.26 ± 0.12 °C | 58.53 ± 0.13 °C | -12.27 ± 0.11 kcal/mol | -11.04 ± 0.059 kcal/mol | -9.573 ± 0.046 kcal/mol | 
TCTACACCGCGA | -135 ± 12 cal/mol/K | -114 ± 9.5 cal/mol/K | -111 ± 8.4 cal/mol/K | -54.3 ± 4.1 kcal/mol | -46.4 ± 3.2 kcal/mol | -44.4 ± 2.7 kcal/mol |  | 41.3 ± 0.82 °C |  |  | 45.5 ± 0.56 °C | 62.45 ± 0.36 °C | 57 °C | 48.18 ± 0.13 °C | 64.36 ± 0.22 °C | 58.2 ± 0.61 °C | 49.78 ± 0.41 °C | 65.78 ± 0.25 °C | 60.1 ± 0.43 °C | 52 ± 0.91 °C | 67.547 ± 0.058 °C | 61.71 ± 0.24 °C | 54.2 ± 1.4 °C | 68.14 ± 0.13 °C | 63.08 ± 0.18 °C |  | -10.8 ± 0.19 kcal/mol | -9.65 ± 0.1 kcal/mol | -8.523 ± 0.038 kcal/mol | 
CTAAACTGTTATAGCCGG | -219 ± 24 cal/mol/K | -205 ± 9.7 cal/mol/K | -166 ± 7.6 cal/mol/K | -83.8 ± 8.2 kcal/mol | -77.5 ± 3.3 kcal/mol | -62.5 ± 2.5 kcal/mol |  | 46.18 ± 0.36 °C | 66.43 ± 0.32 °C | 58.77 ± 0.43 °C | 48.97 ± 0.4 °C | 67.83 ± 0.25 °C | 60.28 ± 0.38 °C | 51.09 ± 0.26 °C | 68.83 ± 0.28 °C | 61.66 ± 0.5 °C | 52.63 ± 0.18 °C | 70.13 ± 0.37 °C | 62.55 ± 0.4 °C | 53.4 ± 0.36 °C | 71.19 ± 0.13 °C | 63.71 ± 0.22 °C | 55.1 ± 0.25 °C | 72.08 ± 0.077 °C | 64.43 ± 0.18 °C | 56.27 ± 0.23 °C | -13.2 ± 0.46 kcal/mol | -11.2 ± 0.12 kcal/mol | -8.979 ± 0.029 kcal/mol | 
ACGGGTCGTTCCGTG | -173 ± 15 cal/mol/K | -172 ± 2.8 cal/mol/K | -186 ± 12 cal/mol/K | -68.9 ± 5.2 kcal/mol | -67 ± 0.95 kcal/mol | -70.7 ± 4.1 kcal/mol |  |  |  | 60.97 ± 0.26 °C | 56.07 ± 0.25 °C | 71.45 ± 0.49 °C | 63.292 ± 0.043 °C | 58.82 ± 0.085 °C | 73.32 ± 0.23 °C | 64.64 ± 0.1 °C | 60 ± 0.17 °C | 74.34 ± 0.26 °C | 65.62 ± 0.087 °C | 60.71 ± 0.21 °C | 75.77 ± 0.15 °C | 67.006 ± 0.054 °C | 61.81 ± 0.19 °C | 76.55 ± 0.13 °C | 68.03 ± 0.2 °C | 62.74 ± 0.27 °C | -13.1 ± 0.37 kcal/mol | -11.37 ± 0.043 kcal/mol | -10.5 ± 0.13 kcal/mol | 
CTGTAAGGCGATATGTT | -202 ± 7.4 cal/mol/K | -192 ± 7.4 cal/mol/K | -201 ± 4.6 cal/mol/K | -77.7 ± 2.5 kcal/mol | -72.7 ± 2.5 kcal/mol | -73.8 ± 1.5 kcal/mol | 62.12 ± 0.3 °C | 46.56 ± 0.46 °C | 64 ± 0.26 °C | 57.45 ± 0.17 °C | 49.35 ± 0.22 °C | 66.38 ± 0.2 °C | 59.646 ± 0.025 °C | 51.33 ± 0.25 °C | 67.39 ± 0.14 °C | 60.55 ± 0.14 °C | 52.31 ± 0.059 °C | 68.42 ± 0.14 °C | 61.364 ± 0.05 °C | 53.15 ± 0.1 °C | 69.61 ± 0.1 °C | 62.62 ± 0.11 °C | 54.29 ± 0.068 °C | 70.55 ± 0.11 °C | 63.366 ± 0.049 °C | 55.12 ± 0.067 °C | -12.5 ± 0.13 kcal/mol | -10.76 ± 0.077 kcal/mol | -8.999 ± 0.015 kcal/mol | 54.19 ± 0.32 °C
